# Measured values reported in the nanobody polyreactivity screen of Harvey et al. (2022).
# Assay: yeast display, Sf9 membrane polyspecificity reagent, FACS + sequencing; frameworks hold sequencing errors
# Method in brief: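 Genes from sorted yeast were amplified by colony PCR, read by MiSeq 2 × 250 sequencing and filtered on CDR length. These cells carried a synthetic nanobody library in Saccharomyces cerevisiae BJ5465 and were sorted by FACS into low and high (top ~1%) gates on anti-HA and streptavidin fluorescence. Polyreactivity is labelled according to the gate of origin.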
row,Sequence,polyreactivity (PSR sort gate)
1,QVQLVESGGGLVQAGGSLRVSCAASGSTFDVNAMGWYRQAPGKERELVAVITSGGSTNYADSVKGRFTISRDNAKNSVYLQMNSLKPEATAVYYCAKDSRTLYDYWGQGTQVTVSS,low polyreactivity
2,QVQLVESGGGLVQAGGSLRVSCAASGSTFILNAMGWYRQAPGKERELVATISSSDTSTYYADSVKGRFTISRDHAKNTVYLQMNSMKPEDTAVYYCNADYYTTAYLQRVYHYGVEYDYWGQVTQVTVSS,low polyreactivity
3,QVQLVESGGGLVQAGGSLRVSCAASGSTFYYYAMGGYSQAPGKERELVAAISSRGGSTYYADSVKGRFRISRDNAKNTVYLQMNSLKPEDTAVYYCAASSQRISPDHDYWGQGTQVTVSS,high polyreactivity
4,QVQLVESGGGLVQAGGSLRYSCAASGLIFQHNALGWYRPAPGKERELVAAISGSGGSTYYADSVKGRFTISRDNAKNTVYLQMNSLKPEDTAVYYCATDDRYYRRYYWGQGTQVTVAS,high polyreactivity
5,QVQLVESGGGLVQAGGSLSFSCAAPGSIFPRYAMGWYRQAPGKERELVAAISRSGGSTYYADSVKGRFTISRDNAKNSVYLQMNSLKPEDTAVYYCATDKVSHRRYDYWGQGTQVTVSS,high polyreactivity
6,QVQLVESGGGLVQAGGSLSFSCAASGFIFRAYTMGWYRQAPGKERELVAAITSSGGRTYYADSVKGRFTISRDNAKNSVYLQMNSLKPEDTAVYYCATVYAKWKQFDYWGQGTQVTVSS,high polyreactivity
7,QVQLVESGGGLVQAGGSLSISCAASDLPGLCYGWYRQAPGKERELVAAMTSNGGSTYYADSVKGRFTISRDNAKITVYLQMNSLKPEDTAVYYCATEHHTVQVYDYWGQGTQVTVSS,low polyreactivity
8,QVQLVESGGGLVQAGGSLSLICAASGGTFYKYAMGWYRQAPGKERELDAAISRSGGSTYYADSVKGRFTISRDNAKNTVYLQINRLKPEDTAVYYCKAYGSYWDFDYWGQRTQVTVSS,high polyreactivity
9,QVQLVESGGGLVQAGGSLSLICAASGSIFTRNAMGWYRQAPGKERELVAAISRRGVSTYYADSVKGRFTNSRDNAKNTVYLQMNSLKPEDTAVYYCNKLSSYVVARRTTEYDYWGQGTQVTVSS,high polyreactivity
10,QVQLVESGGGLVQAGGSLSLICAASGYTLKYYAMGWYRQAPGKERELVAVISRGGSTYYADSVKGRFTISRDNAKNTVYLQMNSLNPEDTAVYYCAKRPTQGYYPYGYWGQGTQVTVSS,high polyreactivity
11,QVQLVESGGGLVQAGGSLSLICAAYGTTFEYYAMRWYRQAPGKERELVATISIDGRTNYADSVKGRFTISRDNAKNTVYLQMISLKPEDTAVYYCAARPYWRHRYDYWGQGTQVTVSS,low polyreactivity
12,QVQLVESGGGLVQAGGSLSLNCAASGFTFLQYPMGWYRQAPGKERELVATISSGGSTYYADSVKGRFTISPDNAKNTVYLQMNSLKPEDTAVYYCADTGYSSCTYYTHEYWGQGTQVTVSS,low polyreactivity
13,QVQLVESGGGLVQAGGSLSLRCADSGRTLWAYAMGGYREAAGNDRELVAAISASGGSTYYADSVKGRFTISRDIAKNTVYLQMNSLKPADTAVYYCRLVSKGRLYDYCGQGTQVTVSS,high polyreactivity
14,QVQLVESGGGLVQAGGSLSLSCAASGFIFRGYAMGWNRQAPGKEREFVAAISRRGGSTYYADSVKGRFTISRDNAKNTVYLQMNSLKPEDTAVYYCAARYSPVWHKYYYWGQGTEVTVSS,high polyreactivity
15,QVQLVESGGGLVQAGGSLSLSCAASGFTFGSNDMGWYRQAPGKERELVAAIDGSGDTYYADSVKGRFTISRDNAKNTVYLQMNSLKPEDTAVYYCARDDNPIYSGVTYDYWGQGTQVTVSS,low polyreactivity
16,QVQLVESGGGLVQAGGSLSLSCAASGFTFGTYTMGWYRQAPRKEREFVAAISFSGTTTYYADSVKGRFTISRDNAKNTVYLQMNSLKPEDTAVYYCATRSPRKGVKGHFRYYYWGQGTQVTVSS,high polyreactivity
17,QVQLVESGGGLVQAGGSLSLSCAASGFTFYGNAIGGNRQAPGKERELVASISTYYADSVKGRFTISRDNAKNTVYLQMNSLKPEDTAVYYCAATHYDRTYYVIYDYWGQGTQVTVSS,low polyreactivity
18,QVQLVESGGGLVQAGGSLSLSCAASGFTFYYYAMGWYRQAPGKERELVAAISTRDGNTYYADSVKGRFTISRDNAKNTVYLQMNSLKPEDTAVYYCAADYFRYYPYDYWGQGTQVTVSS,low polyreactivity
19,QVQLVESGGGLVQAGGSLSLSCAASGFTVYGYAMGWYRQAPGKERELVAAISRRSSSTYYADSVKGRFTISRDNAKNTVYLQMNSLKPEDTAVYYCNTVFQRTGYAAGVDYWGQGTQVTVSS,high polyreactivity
20,QVQLVESGGGLVQAGGSLSLSCAASGGTFLSNAMGWYRQAPGKERELVASISWGGGSTTYADSVKGRFTISRDNAKNTVYLQMNSLKPEDTAVYYCNALDGPGYYVDYDYWGQGTQVTVSS,low polyreactivity
21,QVQLVESGGGLVQAGGSLSLSCAASGITFNIYVMGWYRQAPGKERELVAAITDSGGTTYYADSVKGRFTISRDNAKNTVYLQMNSLKPEDTAVYYCAAEPFYSWWWWGDYWGQGTQVTVSS,high polyreactivity
22,QVQLVESGGGLVQAGGSLSLSCAASGITFVWYALGWYRQAPGTERELVAAISRGGSTYYADSVKGRFTISRDNAKNTVYLQMNSLKPEDTAVYYCNAESAARSTVQQARGYYWGQGTQVTVSS,high polyreactivity

row,Sequence,polyreactivity (PSR sort gate)
1,QVQLVESGGGLVQAGGSLSLSCAASGLNFVKNTMGWYRQAPGKETELVAGISQRGGSTYYADSEKGRFTISRDNAKNTVYLQMNSLKPEETAVYYCAAYSRTFEGHRGGYWGQGTQVTVSS,high polyreactivity
2,QVQLVESGGGLVQAGGSLSLSCAASGRIFDYYAMVWYRQAPGKERDLVAAISTSGGSTYYADSVKGRFTISRDNAKNTVYLQMISLKPVDTAVYYCAKDITVTYPGLDYDYWGQGTQVSVSS,low polyreactivity
3,QVQLVESGGGLVQAGGSLSLSCAASGRIFGRNAMGWYRQAPGKERELVAAISSSGGTYYADSVKGRFTISRDNAKNTVYLQMISLKPEDTAVYYCNDRVRTQQRWVDYWGQGTQVTVSS,high polyreactivity
4,QVQLVESGGGLVQAGGSLSLSCAASGRIFGRYAMGWYRQAPGTERVLVAVISSGGSKYYADSVKGRFTISRDNAKNTVYLQMNSLKPEDTAVYYCAAVNRRGYDYWGQGTQVTVSS,low polyreactivity
5,QVQLVESGGGLVQAGGSLSLSCAASGRIFKSYAMGWYRQAPGKERELVAAIRSGGSTYYADSVKGRFTISRDNAKNTVYFQMNSLKPEDTAVYYCNRVTRTWKVTYHYWGQGTQVTVSS,high polyreactivity
6,QVQLVESGGGLVQAGGSLSLSCAASGRIFNRNAMGWYRQAPGKEREFVAAISYSSGSTYYADSVKGRFTISRDNAKNTVYLQMNSLKPEDTAVYYCAAKVYNSRRNGYFGWTWGGYDYWGQGTQVTVSS,high polyreactivity
7,QVQLVESGGGLVQAGGSLSLSCAASGRIFQPYAMGWYRQAPGKERELVARITSGGSTYADSVKGRFTISRDNAKNTVYLQMNSLKPEDTAVYYCAVRFPWYYRGYAYDYWGQGTQVTVSS,high polyreactivity
8,QVQLVESGGGLVQAGGSLSLSCAASGRIFRRYAMGWYRQAPGKERELVAAISRGGSTYYADSVKGRFTISRDNAKNTVYLQMISLKPEDTAVYYCAAYSQSTSFGGYDSWGQGTQVTVSS,high polyreactivity
9,QVQLVESGGGLVQAGGSLSLSCAASGRIFRVYAMGWYRQAPGKERELVAAISSRGGRTYYADSVKGRFTISRDNAKNTVYLQMNSLKPEDTAVYYCAADGRSSSRATSRYDYWGQGTQVTVSS,high polyreactivity
10,QVQLVESGGGLVQAGGSLSLSCAASGRIFYGYAMGWYRLAPGKERELVAAIRTSGGSTYYADSVKGRFTISRDNAKNTVYLQMNSLKPEDTAVYYCNAGIVPRNRYYTPYNYWGQGTQVTVSS,low polyreactivity
11,QVQLVESGGGLVQAGGSLSLSCAASGRIFYVNAMGWYRQAPGKERELVAAISRSGSSTYYADSVKGRFTISRDNAKNTVYLQMNSLKPEDTAVYYCAARYYGRSQHHFDYWGQGTQVTVSS,high polyreactivity
12,QVQLVESGGGLVQAGGSLSLSCAASGRIIGFNAMGWYRQAPGKERELVASIRTTGGSTRYADSVKGRFTISRDNAKNTVYLQMNSLKPEDTAVYYCAARWGKTLWQYNYWGQGTQVTVSS,high polyreactivity
13,QVQLVESGGGLVQAGGSLSLSCAASGRILFRYGMGWYRQAPGKERELVARISWSGGNTHYADSVKGRFTISRDNAKNTVYLQMNSLKPEDTAVYYCNAYYTYWYPRYDYWGQGTQVTVSS,low polyreactivity
14,QVQLVESGGGLVQAGGSLSLSCAASGRMFLRYAMGWYRQAPGKERELVAVITWSGGSTYYADSVKGRFTISRDNAKNTVYLQMNSLKPEDTAVYYCAADWYPTGFYYWGQGTQVTVSS,low polyreactivity
15,QVQLVESGGGLVQAGGSLSLSCAASGRSFRIYPMGWYRPAPGKERELVATITWRAGSTYYADSVKGRFTISRDNAKNTVYLLMNSLTPEDTAVYYFAAGRQYGGYRYDYWGQGTQVTVSS,high polyreactivity
16,QVQLVESGGGLVQAGGSLSLSCAASGRTFGYYTMGWYRQAPGKERELVAAINWGGSRTYYADSVKGRFTISRDNAKNTVYLEMNSLKPEDTAVYYCAADVYRQWADDSWGLGTQVTVSS,high polyreactivity
17,QVQLVESGGGLVQAGGSLSLSCAASGRTFVRYAMGWYRQAPGKERELVAAISRNAGRTYYADSVKGRFTISRDNAKNTVYLQMNSLKPEDTAVYYCAAPGRNLGTGFYYWGQGTQVTVSS,high polyreactivity
18,QVQLVESGGGLVQAGGSLSLSCAASGRTFYANAMGWNRQAPGKERELVATITRGGSTNYADSVKGRFTISRDNAKNTVYLQMNSLKPEDTAVYYCAARSYTSSHRHYYWGQGTQVTVSS,low polyreactivity
19,QVQLVESGGGLVQAGGSLSLSCAASGSIFDYNAMGWYRQAPGKEREVVAAIDGGSTYYADSVKGRFTISRDNAKNNVYLQMNSLKPEDTAVDYCAAEGFQADTYYWPMESWGQGTQVTVSS,low polyreactivity
20,QVQLVESGGGLVQAGGSLSLSCAASGSIFFVNAMGWYRQAPGKERELVAAISRSGGRTYYADSVKGRFTISRDNAKNTVYFQMNSLKPEDTAVYYCAAEYNPGSYFTYDYWGQGTQVTVSS,low polyreactivity
21,QVQLVESGGGLVQAGGSLSLSCAASGSIFLYNAMGWYRPAPGKERELVAAISKSGGSTYYADSVKGRFTISRDNAKNTVYLQMNSLKPEDTAFYYCAAGYGRRIRYGSEYDYWGQGTQVTVSS,low polyreactivity
